Results on seven molecules are retold here after patent publication US20250188131A1 (ICOSAVAX, published 2025).

Positions count from the first letter of the chain named.

Sequences and labels used below:
B1: RSV/B.147 (other)
chain: QNITEEFYQSTCSAVSRGYLSALRTGWYTSVITIELSNIKETKCNGTDTKVKLIKQELDKYKNAVTELQLLMQNTPAVNNRARREAPQYMNYTINTTKNLNVSISKKRKRRFLGFLLGVGSAIASGIAVCKVLHLEGEVNKIKNALQLTNKAVVSLSNGVSVLTFRVLDLKNYINNQLLPMLNRQSCRISNIETVIEFQQKNSRLLEITREFSVNAGVTTPLSTYMLTNSELLSLINDMPITNDQKKLMSSNVQIVRQQSYSIMCIIKEEVLAYVVQLPIYGVIDTPCWKLHTSPLCTTNIKEGSNICLTRTDRGWYCDNAGSVSFFPQADTCKVQSNRVFCDTMNSLTLPSEVSLCNTDIFNSKYDCKIMTSKTDISSSVITSLGAIVSCYGKTKCTASNKNRGIIKTFSNGCDYVSNKGVDTVSVGNTLYYVNKLEGKNLYVKGEPIINYYDPLVFPSDRFDASISQVNEAINQSREIIRAINIVRKIASEKGSGGSGSGSGGSEKAAKAEEAARKMEELFKKHKIVAVLRANSVEEAIEKAVAVFAGGVHLIEITFTVPDADTVIKALSVLKEKGAIIGAGTVTSVEQARKAVESGAEFIVSPHLDEEISQFAKEKGVFYMPGVMTPTELVKAMKLGHTILKLFPGEVVGPQFVKAMKGPFPNVKFVPTGGVNLDNVAEWFKAGVLAVGVGSALVKGTPDEVREKAKAFVEKIRGATELEHHHHHH
B2: RSV/B.195 (other)
chain: B1 chain with R462E, A473K
B3: RSV/B.178 (other)
chain: B1 chain with T224P, T375D, D461A, D464A
B4: RSV/B.160 (other)
chain: B1 chain with T224P, T375D, F463W, D464A
B5: RSV/B.172 (other)
chain: B1 chain with T224P, T375D, D464A
B6: RSV/B.189 (other)
chain: B1 chain with T375D, D461A, F463W, D464A
B7: RSV/B.148 (other)
chain: QNITEEFYQSTCSAVSRGYLSALRTGWYTSVITIELSNIKETKCNGTDTKVKLIKQELDKYKNAVTELQLLMQNTPAVNNRARREAPQYMNYTINTTKNLNVSISKKRKRRFLGFLLGVGSAIASGIAVCKVLHLEGEVNKIKNALQLTNKAVVSLSNGVSVLTFRVLDLKNYINNQLLPMLNRQSCRISNIETVIEFQQKNSRLLEITREFSVNAGVTTPLSPYMLTNSELLSLINDMPITNDQKKLMSSNVQIVRQQSYSIMCIIKEEVLAYVVQLPIYGVIDTPCWKLHTSPLCTTNIKEGSNICLTRTDRGWYCDNAGSVSFFPQADTCKVQSNRVFCDTMNSLTLPSEVSLCNTDIFNSKYDCKIMTSKTDISSSVITSLGAIVSCYGKTKCTASNKNRGIIKTFSNGCDYVSNKGVDTVSVGNTLYYVNKLEGKNLYVKGEPIINYYDPLVFPSDRFDASISQVNEAINQSREIIRAINIVRKIASEKGSGGSGSGSGGSEKAAKAEEAARKMEELFKKHKIVAVLRANSVEEAIEKAVAVFAGGVHLIEITFTVPDADTVIKALSVLKEKGAIIGAGTVTSVEQARKAVESGAEFIVSPHLDEEISQFAKEKGVFYMPGVMTPTELVKAMKLGHTILKLFPGEVVGPQFVKAMKGPFPNVKFVPTGGVNLDNVAEWFKAGVLAVGVGSALVKGTPDEVREKAKAFVEKIRGATELLEHHHHHH

For the test, the target named is T1, I53-50B.4PosT1.
T1 construct: also called second component; CompB
In words: in vitro assembly with I53-50B, DLS. As for the experimental part:
Selected constructs were incubated with a second component, I53-50B, to form nanostructures. Dynamic Light Scattering (DLS) and negative-stain electron microscopy (nsEM) confirm assembly as nanostructure. A representative electron micrograph is shown in FIG. 5 (RSV/B.195, having the DS-Cav).
Assembly: Molar concentrations for RSV/B or RSV/A trimers fused to I53-50AΔcys and I53-50B (second component, using the sequence of I53-50B.4PosT1, SEQ ID NO:46) were determined using UV-Vis spectroscopy. Absorbance values at 280 nm were collected and divided by calculated molar extinction coefficients (ExPASy). The assembly reaction to produce RSVB antigen-bearing nanostructures was performed in vitro with the addition of components as follows: RSV F trimers fused to I53-50AΔcys were added to PCR tubes in 1.5× molar excess of I53-50B, then assembly buffer (20 mM Tris pH 7.4, 250 mM NaCl, 4% sucrose) was added to the sample in PCR tubes, and finally I53-50B was added to the reaction to bring the assemblies to a final concentration of 7.5 μM and a final volume of 47.5 μL. The reaction was incubated at ambient temperature for ˜30 minutes with gentle rocking prior to subsequent measurement by dynamic light scattering (DLS). All constructs were assembly competent under the conditions tested. Prior to nsEM analysis or immunogenicity studies, assembled nanostructures were further purified by size exclusion chromatography over a Superose 6 Increase 10/300 GL column into 20 mM Tris pH 7.4, 250 mM NaCl, 4% sucrose.
In the case of B1, the binding result is on record as “binds”.
On to B2, for which the binding result is “binds”.
With B3 the entry was “binds”.
To B4 belongs “binds”; to B5, “binds”; to B6, “binds”.
With B7 the entry was “binds”.
